Source: PMC3607351 (Structure (London, England : 1993), 2012)
One block for each molecule: values may come before it.

Experiments:
[1] = target: Recombinant mouse RANKL (residues 162-316), receptor-binding ectodomain, trimer (mouse) (UniProt O35235); assay: SPR
[2] = target: the molecule itself; assay: crystal structure
[3] = target: T1, Extracellular cytokine-binding domain of mouse RANK (all four CRDs, residues 1-198) (mouse, UniProt O35305 31-198); assay: SPR
T1 sequence (looked up): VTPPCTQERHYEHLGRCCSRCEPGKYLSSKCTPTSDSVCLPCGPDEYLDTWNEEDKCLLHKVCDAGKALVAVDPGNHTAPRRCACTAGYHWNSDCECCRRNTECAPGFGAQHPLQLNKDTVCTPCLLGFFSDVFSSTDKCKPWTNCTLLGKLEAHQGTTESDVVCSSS

fold decrease in affinity against wild-type OPG CRDs [1]: 60 fold
fold slower on-rate than wild-type OPG CRDs [1]: 30 fold
Molecule: Mouse OPG F96A CRD fragment (CRDs 1 through 4) (from UniProt O08712 22-191) (domain or fragment)

Kd [3]: 2090 nM
B1: Recombinant mouse RANKL (residues 162-316), receptor-binding ectodomain, trimer (ligand, UniProt O35235-1 162-316, looked up)
chain: QPFAHLTINAASIPSGSHKVTLSSWYHDRGWAKISNMTLSNGKLRVNQDGFYYLYANICFRHHETSGSVPTDYLQLMVYVVKTSIKIPSSHNLMKGGSTKNWSGNSEFHFYSINVGGFFKLRAGEEISIQVSNPSLLDPDQDATYFGAFKVQDID
stoichiometry N [2]: 3
